Experimental data: patent US20190134153A1, “IMMUNOMODULATORY EFFECT OF INHALED KINASE INHIBITOR PEPTIDES IN LUNG” (MOERAE MATRIX, INC., priority 2017, published 2019)

Assays:
Assay in all cases: Kinase Profiling Assay
Assay type in all cases: biochemical
Conditions in all cases: 100 μM
AMPKα2(h) = AMPKα2(h) (Homo sapiens, UniProt P54646)
CDK1/cyclinB(h) = CDK1/cyclinB(h) (Homo sapiens, UniProt P06493)
EphA3(h) = target: T1, EphA3(h) (Homo sapiens, UniProt P29320)
T1 sequence (P29320 21-983): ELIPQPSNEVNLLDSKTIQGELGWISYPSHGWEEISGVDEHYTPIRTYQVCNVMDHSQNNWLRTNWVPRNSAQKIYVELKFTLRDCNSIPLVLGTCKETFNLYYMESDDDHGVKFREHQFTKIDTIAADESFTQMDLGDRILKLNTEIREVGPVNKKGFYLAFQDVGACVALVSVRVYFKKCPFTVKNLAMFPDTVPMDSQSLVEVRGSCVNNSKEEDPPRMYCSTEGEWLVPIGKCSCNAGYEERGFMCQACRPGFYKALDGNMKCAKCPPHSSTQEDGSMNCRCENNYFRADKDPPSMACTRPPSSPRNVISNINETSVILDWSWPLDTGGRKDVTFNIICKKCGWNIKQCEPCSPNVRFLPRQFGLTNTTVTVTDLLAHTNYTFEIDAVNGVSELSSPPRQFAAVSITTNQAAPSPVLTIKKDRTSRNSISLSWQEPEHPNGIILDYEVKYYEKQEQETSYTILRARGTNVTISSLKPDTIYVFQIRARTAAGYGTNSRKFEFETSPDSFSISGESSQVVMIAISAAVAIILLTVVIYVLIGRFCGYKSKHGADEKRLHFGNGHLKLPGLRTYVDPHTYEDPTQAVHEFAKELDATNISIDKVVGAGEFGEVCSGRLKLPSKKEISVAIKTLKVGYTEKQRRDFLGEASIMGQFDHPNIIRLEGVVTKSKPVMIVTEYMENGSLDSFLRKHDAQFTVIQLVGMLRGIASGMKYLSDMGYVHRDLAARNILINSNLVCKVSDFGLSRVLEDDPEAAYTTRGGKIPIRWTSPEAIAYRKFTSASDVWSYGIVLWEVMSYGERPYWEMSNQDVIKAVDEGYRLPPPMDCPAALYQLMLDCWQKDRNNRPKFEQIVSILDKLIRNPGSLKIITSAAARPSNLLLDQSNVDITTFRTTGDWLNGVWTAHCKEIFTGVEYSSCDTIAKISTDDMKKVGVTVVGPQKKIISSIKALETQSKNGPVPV

EphB3(h) = target: T2, EphB3(h) (Homo sapiens, UniProt P54753)
T2 sequence (P54753 34-998): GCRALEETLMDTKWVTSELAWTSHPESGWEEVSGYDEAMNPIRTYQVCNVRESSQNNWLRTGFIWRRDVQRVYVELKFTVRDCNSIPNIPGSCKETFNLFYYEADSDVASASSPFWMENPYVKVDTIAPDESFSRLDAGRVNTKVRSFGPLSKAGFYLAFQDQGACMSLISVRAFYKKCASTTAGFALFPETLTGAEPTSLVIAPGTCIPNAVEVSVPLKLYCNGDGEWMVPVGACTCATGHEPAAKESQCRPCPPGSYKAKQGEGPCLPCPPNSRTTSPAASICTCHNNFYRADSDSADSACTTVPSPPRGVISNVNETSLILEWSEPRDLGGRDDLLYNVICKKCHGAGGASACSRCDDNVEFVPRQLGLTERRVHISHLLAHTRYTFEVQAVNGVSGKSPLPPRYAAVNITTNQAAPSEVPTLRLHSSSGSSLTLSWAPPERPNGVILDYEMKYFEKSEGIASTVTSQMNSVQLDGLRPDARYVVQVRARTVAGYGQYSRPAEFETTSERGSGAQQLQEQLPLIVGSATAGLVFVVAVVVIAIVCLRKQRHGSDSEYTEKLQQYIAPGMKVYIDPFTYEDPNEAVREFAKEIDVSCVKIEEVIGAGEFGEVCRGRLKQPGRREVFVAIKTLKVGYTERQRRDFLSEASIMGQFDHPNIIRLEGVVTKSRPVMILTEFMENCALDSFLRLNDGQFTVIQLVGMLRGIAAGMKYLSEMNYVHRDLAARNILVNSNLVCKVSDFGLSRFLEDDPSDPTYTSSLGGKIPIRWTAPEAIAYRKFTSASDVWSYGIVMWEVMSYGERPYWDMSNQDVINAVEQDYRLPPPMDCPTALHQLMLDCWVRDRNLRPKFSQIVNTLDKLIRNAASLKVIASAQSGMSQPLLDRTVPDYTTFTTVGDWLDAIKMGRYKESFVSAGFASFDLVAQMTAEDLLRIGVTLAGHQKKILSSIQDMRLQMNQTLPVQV

Met(D1246H)(h) = Met(D1246H)(h) (Homo sapiens, UniProt P08581, D1228H)
Mnk2(h) = Mnk2(h) (Homo sapiens, UniProt Q9HBH9)
Mnk2(h), sequence (Q9HBH9 whole entry): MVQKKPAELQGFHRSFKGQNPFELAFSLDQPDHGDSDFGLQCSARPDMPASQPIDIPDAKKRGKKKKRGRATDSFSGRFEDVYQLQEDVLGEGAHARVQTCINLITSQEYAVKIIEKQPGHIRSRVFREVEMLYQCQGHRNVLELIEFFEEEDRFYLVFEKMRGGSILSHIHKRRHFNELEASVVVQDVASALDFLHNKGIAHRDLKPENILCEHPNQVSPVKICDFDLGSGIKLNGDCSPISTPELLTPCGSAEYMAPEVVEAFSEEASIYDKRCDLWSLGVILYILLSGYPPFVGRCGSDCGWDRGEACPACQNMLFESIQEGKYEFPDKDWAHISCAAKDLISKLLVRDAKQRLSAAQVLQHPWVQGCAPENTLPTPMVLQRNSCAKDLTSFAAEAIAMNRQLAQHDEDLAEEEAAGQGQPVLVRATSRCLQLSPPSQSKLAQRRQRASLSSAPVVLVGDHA

MST3(h) = MST3(h) (Homo sapiens, UniProt Q9Y6E0)
MST3(h), sequence (Q9Y6E0 whole entry): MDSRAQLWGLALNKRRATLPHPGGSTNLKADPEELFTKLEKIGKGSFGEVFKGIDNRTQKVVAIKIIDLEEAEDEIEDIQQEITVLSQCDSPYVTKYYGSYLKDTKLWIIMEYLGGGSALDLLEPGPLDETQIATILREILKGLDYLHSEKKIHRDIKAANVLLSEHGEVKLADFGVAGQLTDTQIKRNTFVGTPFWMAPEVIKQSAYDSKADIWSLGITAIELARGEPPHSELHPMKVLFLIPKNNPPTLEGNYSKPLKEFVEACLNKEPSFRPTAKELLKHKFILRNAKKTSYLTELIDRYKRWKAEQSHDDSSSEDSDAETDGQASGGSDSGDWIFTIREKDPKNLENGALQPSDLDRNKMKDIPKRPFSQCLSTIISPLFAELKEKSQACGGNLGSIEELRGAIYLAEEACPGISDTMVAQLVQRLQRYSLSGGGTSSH

PAK4(h) = PAK4(h) (Homo sapiens, UniProt O96013)
PAK4(h), sequence (O96013 whole entry): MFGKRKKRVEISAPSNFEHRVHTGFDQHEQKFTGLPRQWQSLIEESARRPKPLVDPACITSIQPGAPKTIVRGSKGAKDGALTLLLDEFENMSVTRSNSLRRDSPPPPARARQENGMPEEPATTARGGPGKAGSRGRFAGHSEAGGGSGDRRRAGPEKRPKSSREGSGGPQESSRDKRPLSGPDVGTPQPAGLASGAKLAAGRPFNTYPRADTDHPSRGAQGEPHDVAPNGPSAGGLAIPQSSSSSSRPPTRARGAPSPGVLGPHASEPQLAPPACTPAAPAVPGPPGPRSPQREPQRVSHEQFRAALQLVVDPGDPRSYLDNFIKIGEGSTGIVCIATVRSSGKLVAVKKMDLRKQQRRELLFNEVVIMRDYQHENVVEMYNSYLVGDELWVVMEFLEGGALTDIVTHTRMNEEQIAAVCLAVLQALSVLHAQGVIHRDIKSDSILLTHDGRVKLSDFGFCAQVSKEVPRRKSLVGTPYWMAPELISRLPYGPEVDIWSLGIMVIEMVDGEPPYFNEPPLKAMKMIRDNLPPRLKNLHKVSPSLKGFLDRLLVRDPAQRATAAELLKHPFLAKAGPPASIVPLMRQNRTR

Ret(h) = Ret(h) (Homo sapiens, UniProt P07949)
Ret(V804M)(h) = Ret(V804M)(h) (Homo sapiens, UniProt P07949, V804M)
BTK(h) = BTK(h) (Homo sapiens, UniProt Q06187)
BTK(h), sequence (Q06187 whole entry): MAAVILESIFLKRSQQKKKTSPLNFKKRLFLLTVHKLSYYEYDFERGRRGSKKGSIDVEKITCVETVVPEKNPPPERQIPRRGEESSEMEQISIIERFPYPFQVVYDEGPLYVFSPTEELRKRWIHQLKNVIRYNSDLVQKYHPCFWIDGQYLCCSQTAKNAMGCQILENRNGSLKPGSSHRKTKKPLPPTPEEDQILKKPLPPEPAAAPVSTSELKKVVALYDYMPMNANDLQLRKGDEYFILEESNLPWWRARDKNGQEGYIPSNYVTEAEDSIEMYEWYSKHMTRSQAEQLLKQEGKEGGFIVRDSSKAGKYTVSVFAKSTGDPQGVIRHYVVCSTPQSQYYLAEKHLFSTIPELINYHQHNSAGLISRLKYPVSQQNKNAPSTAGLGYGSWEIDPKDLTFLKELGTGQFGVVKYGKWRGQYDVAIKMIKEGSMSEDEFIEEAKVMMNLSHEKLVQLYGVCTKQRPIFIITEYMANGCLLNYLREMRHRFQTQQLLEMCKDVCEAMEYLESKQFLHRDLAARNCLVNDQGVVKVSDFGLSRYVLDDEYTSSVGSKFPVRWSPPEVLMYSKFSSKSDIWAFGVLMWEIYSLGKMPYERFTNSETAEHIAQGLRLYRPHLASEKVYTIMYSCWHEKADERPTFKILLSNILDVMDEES

FGFR3(h) = FGFR3(h) (Homo sapiens, UniProt P22607)
FGFR3(h), sequence (P22607 23-806): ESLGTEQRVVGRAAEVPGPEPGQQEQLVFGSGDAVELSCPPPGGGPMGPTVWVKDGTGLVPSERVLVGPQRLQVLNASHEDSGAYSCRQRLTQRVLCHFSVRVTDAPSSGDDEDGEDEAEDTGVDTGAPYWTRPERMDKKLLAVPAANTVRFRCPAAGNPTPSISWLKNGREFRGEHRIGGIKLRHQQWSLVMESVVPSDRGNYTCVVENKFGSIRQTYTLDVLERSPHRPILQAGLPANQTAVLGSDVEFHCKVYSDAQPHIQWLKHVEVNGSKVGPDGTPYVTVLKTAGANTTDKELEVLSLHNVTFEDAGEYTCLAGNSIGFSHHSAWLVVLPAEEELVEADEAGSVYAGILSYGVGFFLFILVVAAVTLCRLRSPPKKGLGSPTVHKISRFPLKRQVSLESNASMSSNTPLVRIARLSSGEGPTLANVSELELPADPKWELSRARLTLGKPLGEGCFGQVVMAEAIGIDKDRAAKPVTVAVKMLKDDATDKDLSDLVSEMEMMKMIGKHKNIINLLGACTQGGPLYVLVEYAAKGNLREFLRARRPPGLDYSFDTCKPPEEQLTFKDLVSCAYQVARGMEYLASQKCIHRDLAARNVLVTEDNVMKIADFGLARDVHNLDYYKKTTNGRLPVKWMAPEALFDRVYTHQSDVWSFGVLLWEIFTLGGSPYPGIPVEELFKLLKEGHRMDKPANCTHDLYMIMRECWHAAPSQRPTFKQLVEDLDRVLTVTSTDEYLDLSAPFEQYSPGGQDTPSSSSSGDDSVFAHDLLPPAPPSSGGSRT

CDK1/cyclinB(h), sequence (P06493 whole entry): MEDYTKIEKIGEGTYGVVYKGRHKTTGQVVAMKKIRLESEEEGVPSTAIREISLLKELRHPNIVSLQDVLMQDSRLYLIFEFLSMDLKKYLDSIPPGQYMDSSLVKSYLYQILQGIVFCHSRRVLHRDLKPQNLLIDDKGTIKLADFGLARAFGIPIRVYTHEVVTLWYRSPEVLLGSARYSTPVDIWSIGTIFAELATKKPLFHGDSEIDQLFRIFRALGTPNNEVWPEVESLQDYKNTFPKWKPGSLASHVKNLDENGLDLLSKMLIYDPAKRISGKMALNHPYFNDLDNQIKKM
CDK1/cyclinB(h), sequence (P14635 whole entry partner): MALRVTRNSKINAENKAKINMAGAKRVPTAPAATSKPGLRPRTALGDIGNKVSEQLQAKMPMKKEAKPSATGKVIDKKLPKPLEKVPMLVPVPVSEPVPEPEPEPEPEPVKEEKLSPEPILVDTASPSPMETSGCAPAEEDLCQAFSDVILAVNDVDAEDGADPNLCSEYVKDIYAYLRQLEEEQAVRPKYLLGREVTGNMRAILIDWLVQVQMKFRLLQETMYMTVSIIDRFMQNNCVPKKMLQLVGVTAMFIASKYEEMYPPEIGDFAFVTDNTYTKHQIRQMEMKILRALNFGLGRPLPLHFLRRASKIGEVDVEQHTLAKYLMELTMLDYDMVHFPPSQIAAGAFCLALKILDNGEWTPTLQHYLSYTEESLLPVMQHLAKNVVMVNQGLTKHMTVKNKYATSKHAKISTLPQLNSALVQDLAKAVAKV
AMPKα2(h), sequence (P54646 whole entry): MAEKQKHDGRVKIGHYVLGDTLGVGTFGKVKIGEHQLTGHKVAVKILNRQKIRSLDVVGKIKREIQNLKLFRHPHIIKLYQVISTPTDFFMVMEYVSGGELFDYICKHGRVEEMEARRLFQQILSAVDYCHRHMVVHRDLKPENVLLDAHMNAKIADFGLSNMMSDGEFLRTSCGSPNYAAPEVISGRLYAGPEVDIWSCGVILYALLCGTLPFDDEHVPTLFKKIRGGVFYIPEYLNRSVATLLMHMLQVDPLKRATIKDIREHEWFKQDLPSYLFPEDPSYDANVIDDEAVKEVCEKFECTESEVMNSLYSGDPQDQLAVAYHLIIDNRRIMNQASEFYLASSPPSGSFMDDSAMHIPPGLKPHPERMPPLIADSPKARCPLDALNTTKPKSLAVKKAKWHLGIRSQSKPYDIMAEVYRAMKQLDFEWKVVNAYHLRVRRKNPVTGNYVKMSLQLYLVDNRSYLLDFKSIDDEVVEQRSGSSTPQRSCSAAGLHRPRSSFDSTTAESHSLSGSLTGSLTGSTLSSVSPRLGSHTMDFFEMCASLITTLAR
AMPKα2(h), sequence (Q9Y478 whole entry partner): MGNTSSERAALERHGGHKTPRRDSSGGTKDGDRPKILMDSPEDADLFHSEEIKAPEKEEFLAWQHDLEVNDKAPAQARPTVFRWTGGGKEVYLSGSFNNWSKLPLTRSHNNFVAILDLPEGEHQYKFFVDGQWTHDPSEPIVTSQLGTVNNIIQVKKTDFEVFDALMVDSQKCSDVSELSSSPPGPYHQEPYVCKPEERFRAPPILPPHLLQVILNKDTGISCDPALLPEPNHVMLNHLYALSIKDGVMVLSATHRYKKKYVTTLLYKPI
AMPKα2(h), sequence (P54619 whole entry partner): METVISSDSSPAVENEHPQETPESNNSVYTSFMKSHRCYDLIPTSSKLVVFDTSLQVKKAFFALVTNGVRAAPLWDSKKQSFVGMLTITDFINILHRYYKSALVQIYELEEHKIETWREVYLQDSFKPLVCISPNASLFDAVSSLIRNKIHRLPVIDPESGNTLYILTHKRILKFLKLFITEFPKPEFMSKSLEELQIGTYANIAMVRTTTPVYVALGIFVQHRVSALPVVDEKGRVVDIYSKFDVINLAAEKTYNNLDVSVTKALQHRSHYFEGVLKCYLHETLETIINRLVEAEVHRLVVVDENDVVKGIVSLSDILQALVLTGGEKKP

| Sequence | % activity (AMPKα2(h)) [%] | % activity (CDK1/cyclinB(h)) [%] | % activity (EphA3(h)) [%] | % activity (EphB3(h)) [%] | % activity (Met(D1246H)(h)) [%] | % activity (Mnk2(h)) [%] | % activity (MST3(h)) [%] | % activity (PAK4(h)) [%] | % activity (Ret(h)) [%] | % activity (Ret(V804M)(h)) [%] | % activity (BTK(h)) [%] | % activity (FGFR3(h)) [%] |
| --- | --- | --- | --- | --- | --- | --- | --- | --- | --- | --- | --- | --- |
| FAKLAARLYRKALARQLGVAA [MMI-0300] | 54 | 73 | 6 | 62 | 125 | 89 | 45 | 94 | 140 | 95 |  |  |
| KAFAKLAARLYRKALARQLGVAA [MMI-0400] | 58 | 74 | 12 | 47 | 68 | 86 | 36 | 89 | 145 | 87 | 94 | 0 |
| HRRIKAWLKKIKALARQLGVAA [MMI-0500] | 9 | 57 | 33 | 79 | 150 | 6 | 4 | 86 | 174 | 36 | 18 | 10 |
| YARAAARQARAKALNRQLGVA [MMI-0200] | 88 |  |  | 128 | 139 |  | 95 | 98 | 96 |  | 100 | 208 |
